No end group written: not given here. FAM = carboxyfluorescein
Assays:
Details in all cases: both partners purified
[1] = molecular target: T1, recombinant full-length TCTP, purified (human (cDNA from AGS cells), UniProt P13693 1-172); experiment: pull-down; cobalt beads coated with 20 µM his-tagged HDM2 (17–125), 4 h at 4°C with 7 µM TCTP protein, with or without 200 µM Nutlin-3; Western blot
T1 construct: TCTP, called recombinant full-length TCTP; also called recombinant TCTP; TCTP protein; source: expressed as GST fusion (pGEX-6P-1), purified (GSTrap, on-column cleavage with precission protease, monoQ)
T1 sequence (looked up): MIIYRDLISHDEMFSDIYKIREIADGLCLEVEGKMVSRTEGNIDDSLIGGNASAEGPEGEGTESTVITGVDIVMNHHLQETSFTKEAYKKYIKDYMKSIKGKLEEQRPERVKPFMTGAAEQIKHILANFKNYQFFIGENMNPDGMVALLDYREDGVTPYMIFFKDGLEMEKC

purified HDM2 (1–125) [2] = molecular target: T2, purified HDM2 (1–125) (human, UniProt Q00987 1-125); experiment: pull-down; biotinylated peptides (10 µg) on streptavidin Dynabeads M-280, incubated with purified HDM2 (1–125) (15 µM) or TCTP (15 or 30 µM) 4 h at 4°C; Western blot; repeated with DMSO or Nutlin-3 (2/20/200 µM)
T2 construct: source: expressed as GST fusion (pGEX-6P-1), purified (GSTrap, on-column cleavage with precission protease, monoS)

purified HDM2 (1–125) [3] = molecular target: T2, purified HDM2 (1–125); experiment: fluorescence polarisation; competition: 50 nM FAM-12-1 peptide, 250 nM HDM2 (1–125), competitors TH2/TH3 (50/200/600 µM), control peptide (600 µM), Nutlin-3 (200 µM), p53 peptide; PBS-0.005% Tween-20
[4] = molecular target: T1, recombinant full-length TCTP, purified; experiment: pull-down; biotinylated peptides (10 µg) on streptavidin Dynabeads M-280, incubated with purified HDM2 (1–125) (15 µM) or TCTP (15 or 30 µM) 4 h at 4°C; Western blot; repeated with DMSO or Nutlin-3 (2/20/200 µM)

B1: recombinant his-tagged HDM2 (residues 17–125) (domain or fragment, human, UniProt Q00987 17-125, looked up)
chain: SQIPASEQETLVRPKPLLLKLLKSVGAQKDTYTMKEVLFYLGQYIMTKRLYDEKQQHIVYCSNDLLGDLFGVPSFSVKEHRKIYTMIYRNLVVVNQQESSDSGTSVSEN
notes: also called recombinant HDM2 N-terminal domain; source: recombinant
B1: binds [1].

B2: TH2 peptide (TCTP residues 81–110) (peptide)
peptide: GGGSTSFTKEAYKKYIKDYMKSIKGKLEEQRPER
modifications: also: biotin, position not given here
notes: spacer at the N-terminus; TCTP residues 81-110; source: synthetic peptide (Mimotopes)
B2: binds (purified HDM2 (1–125) [2]).

B3: carboxyfluorescein (FAM) labeled 12-1 peptide (peptide)
peptide: {FAM}-RFMDYWEGL-NH2
notes: also called FAM-labeled p53 peptide (12.1); fluorescently labelled p53 peptide
B3: binds (purified HDM2 (1–125) [3]).

B4: HDM2 α2 helix peptide (residues 43–65) (peptide)
peptide: GGGSAQKDTYTMKEVLFYLGQYIMTKR
modifications: biotin (position not given)
notes: spacer at the N-terminus; HDM2 α2 helix, residues 43-65; source: synthetic peptide (Mimotopes)
B4: binds [4].

B5: TH3 peptide (TCTP residues 107–133) (peptide)
peptide: GGGSRPERVKPFMTGAAEQIKHILANFKNYQ
modifications: also: biotin, position not given here
notes: spacer at the N-terminus; source: synthetic peptide (Mimotopes)
B5: binds (purified HDM2 (1–125) [2]).

Source: PMC3418249, “Binding of Translationally Controlled Tumour Protein to the N-Terminal Domain of HDM2 Is Inhibited by Nutlin-3” (PLoS ONE, 2012)
